Data reported in PMC6769691.

Legend:
[1] = biological target: TNFRs on MR300 cells (human (endogenous in MR300)); assay: immunostaining of cells or tissue; competition on adherent MR300 cells (CNGRC-binder): hTNF-Fc (1:50) staining, 1 h at room temperature, Alexa-594 anti-human antibody, with 0.01 to 30 µg/mL unlabeled NGR-hTNF or hTNF; percent of control
[2] = biological target: CD13 (aminopeptidase N), CNGRC-binder isoform, on HUVEC, mesoangioblasts (MB) and MR300 cells (human (endogenous in HUVEC, MB, MR300)) (UniProt P15144)
Chain of CD13 (aminopeptidase N), CNGRC-binder isoform, on HUVEC, mesoangioblasts (MB) and MR300 cells (human (endogenous in HUVEC, MB, MR300)) (P15144 whole entry, canonical isoform): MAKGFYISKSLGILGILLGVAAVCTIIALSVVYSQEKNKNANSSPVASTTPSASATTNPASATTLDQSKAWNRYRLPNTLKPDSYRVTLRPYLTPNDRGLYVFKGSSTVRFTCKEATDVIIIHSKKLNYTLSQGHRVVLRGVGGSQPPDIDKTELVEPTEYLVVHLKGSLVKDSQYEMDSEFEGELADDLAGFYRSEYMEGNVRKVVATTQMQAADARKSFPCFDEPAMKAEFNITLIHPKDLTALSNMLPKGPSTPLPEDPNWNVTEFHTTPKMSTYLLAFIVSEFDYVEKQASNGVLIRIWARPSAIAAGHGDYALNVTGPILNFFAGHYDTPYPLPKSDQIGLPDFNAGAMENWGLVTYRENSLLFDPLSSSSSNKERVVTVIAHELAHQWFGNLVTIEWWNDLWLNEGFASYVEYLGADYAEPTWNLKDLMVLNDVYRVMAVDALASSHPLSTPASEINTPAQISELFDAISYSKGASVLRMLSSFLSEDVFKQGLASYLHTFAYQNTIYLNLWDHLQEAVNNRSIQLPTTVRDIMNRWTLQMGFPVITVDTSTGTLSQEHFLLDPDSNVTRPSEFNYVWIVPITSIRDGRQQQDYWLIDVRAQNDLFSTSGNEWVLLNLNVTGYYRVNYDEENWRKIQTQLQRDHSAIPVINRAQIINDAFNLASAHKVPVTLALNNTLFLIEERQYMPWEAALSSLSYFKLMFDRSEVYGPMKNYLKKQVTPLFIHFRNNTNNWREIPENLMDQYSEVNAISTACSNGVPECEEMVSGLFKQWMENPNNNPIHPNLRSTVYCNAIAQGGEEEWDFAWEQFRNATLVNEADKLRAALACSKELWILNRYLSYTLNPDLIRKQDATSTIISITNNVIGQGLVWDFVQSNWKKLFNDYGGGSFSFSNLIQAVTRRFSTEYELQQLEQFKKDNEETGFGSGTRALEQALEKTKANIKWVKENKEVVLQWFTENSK

Substance | IC50 [1] | phosphorylation of Akt-Ser473 in MR300 cells treated with NGR-hTNF in comparison to hTNF (Kinexus phospho-site screen) [2] | phosphorylation of Erk1 in MR300 cells treated with NGR-hTNF in comparison to hTNF (Kinexus phospho-site screen) [2] | phosphorylation of Erk2 in MR300 cells treated with NGR-hTNF in comparison to hTNF (Kinexus phospho-site screen) [2]
hTNF (ligand) | 20 nM | – | – | –
NGR-hTNF (ligand) | 5 nM | -36% | -36% | -35%
